# Data reported in PMC12035558, “Structure of the Saccharolobus solfataricus GINS tetramer” (Acta Crystallographica Section F: Structural Biology …, 2025).
# B1: Saccharolobus solfataricus GINS51 (natural protein)
# chain: MLDELVKKELSEEEITEIKLEEIIKYITLIKKSKTFVSSEIRKEELKFLSELAESLFELRLSKVLEGKVGKGFDEFIFDIFKILKQFYVDLLTGRYIIYNDKIYCIVQKPLIYNDHRVNEGDVLVLPMREALPLIIASYLTPYKIDIEEQL
# notes: GINS51 of Saccharolobus solfataricus, gene amplified from genomic DNA (ATCC 35092D-5); Two copies stand in the (GINS23)2(GINS51)2 tetramer; A subdomain (alpha-helical) comes first, B subdomain (with beta-strands) second; also called SsoGINS51; Sso51
# Target: the molecule itself
# Experiment: crystal structure; co-expressed and co-purified SsoGINS tetramer, 11 mg/ml in 20 mM Tris pH 8.3, 100 mM NaCl; hanging drop, 0.18 M triammonium citrate, 20%(w/v) PEG 3350, 291 K; space group P6_(3), 2.3 Å
protein,measurement,value
B1,binding result,binds
